B1: ANB019 (antibody, V domains shown)
VH: QVQLVQSGAEVKKPGASVKVSCKASGYTFTNYWMNWVRQAPRQGLEWMGMFHPTGDVTRLNQKFKDRVTMTRDTSTSTVYMELSSLRSEDTAVYYCARTTSMIIGGFAYWGQGTLVTVSS
VL: DIVMTQTPLSLSVTPGQPASISCRSSKSLLHRNAITYFYWYLHKPGQPPQLLIYQMSNLASGVPDRFSGSGSGTDFTLKISRVEAEDVGVYYCAQNLELPLTFGGGTKVEIK
B2: REGN14 (antibody, V domains shown)
VH: EVQLVESGGDLVQPGRSLRLSCAASGFTFDDYAMHWVRQAPGKGLEWVSVISWNSDVIAYSDSVKGRFTISRDNAKNSLYLQMNSLRTEDTALYYCTKGHKWSFFDYWGQGTLVTVSS
VL: EIVLTQSPATLSLSPGERATLSCRASQSISSYLAWYQQKPGQAPRLLIFNVANRATDIPARFSGSGSGTDFTLTISSLEPEDFAVYYCQQRSNWPLTFGGGTKVEIK
B3: BI655130 (antibody, V domains shown)
VH: QVQLVQSGAEVKKPGASVKVSCKASGYSFTSSWIHWVKQAPGQGLEWMGEINPGNVRTNYNENFRNKVTMTVDTSISTAYMELSRLRSDDTAVYYCTVVFYGEPYFPYWGQGTLVTVSS
VL: QIVLTQSPGTLSLSPGERATMTCTASSSVSSSYFHWYQQKPGQAPRLWIYRTSRLASGVPDRFSGSGSGTDFTLTISRLEPEDAATYYCHQFHRSPLTFGAGTKLEIK

Target: membrane cyno IL-36R (cynomolgus)
Test: binding to cynomolgus IL-36R; the legend and Example 8 say membrane cyno IL-36R on transfected HEK293 cells by FACS, but the y axis on the sheet is OD450 nm; unit taken from the x axis

| EC50 | Binder |
| --- | --- |
| 0.0132 µg/mL | B1 |
| 0.0059 µg/mL | B2 |
| 0.196 µg/mL | B3 |

From patent publication US20250002593A1
